Data from US20060287501A1 (Pieris, published 2006).
Blank lines part the entries; values can stand above or below the binder they belong to.

What was measured:
[1] = target: T1, recombinant Nogo-A fragment NI-Fr4 (rat, UniProt Q9JK11 233-941); assay: SPR (Biacore X); NI-Fr4 on Ni/NTA chip via His6, Fab (pASK107, Strep-tag II) at 0.25-6.8 µM, equilibrium fit
T1 construct: Truncated rat Nogo-A with N-terminal Strep-tag II and C-terminal His6
T1 sequence: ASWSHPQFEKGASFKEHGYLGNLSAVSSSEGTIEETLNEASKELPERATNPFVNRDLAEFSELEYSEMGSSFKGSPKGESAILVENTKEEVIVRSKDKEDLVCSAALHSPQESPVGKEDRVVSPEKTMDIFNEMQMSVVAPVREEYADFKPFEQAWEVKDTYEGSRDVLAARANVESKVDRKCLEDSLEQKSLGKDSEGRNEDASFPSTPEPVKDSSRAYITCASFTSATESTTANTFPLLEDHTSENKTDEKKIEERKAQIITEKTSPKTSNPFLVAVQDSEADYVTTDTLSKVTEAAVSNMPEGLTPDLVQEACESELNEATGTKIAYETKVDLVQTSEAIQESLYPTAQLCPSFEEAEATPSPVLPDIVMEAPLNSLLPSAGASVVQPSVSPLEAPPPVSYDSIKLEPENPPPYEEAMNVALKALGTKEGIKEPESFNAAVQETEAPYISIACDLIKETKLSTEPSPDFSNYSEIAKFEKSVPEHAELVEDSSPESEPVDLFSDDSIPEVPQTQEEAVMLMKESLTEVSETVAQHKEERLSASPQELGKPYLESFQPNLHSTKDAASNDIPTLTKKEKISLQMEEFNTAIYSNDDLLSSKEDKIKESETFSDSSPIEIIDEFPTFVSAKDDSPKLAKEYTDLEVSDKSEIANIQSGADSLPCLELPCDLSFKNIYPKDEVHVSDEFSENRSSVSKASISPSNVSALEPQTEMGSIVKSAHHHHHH
Method: (§1) The thermodynamic affinity for the recombinant Nogo-A fragment NI-Fr4 was determined both for the II.1.8 mutant and for the wild-type IN-1 Fab fragment using the method of real time surface plasmon resonance (SPR) on a Biacore-X® system equipped with an Ni/NTA-derivatized sensor chip® (Biacore AB, Uppsala, Sweden). PBS containing 0.005% (v/v) surfactant P20 was used as continuous flow buffer as well as for dilution of proteins. Analysis was performed at 25° C. using a flow rate of 35 μl/min.
(§2) Then the Fab fragment (produced by means of the vector pASK107 and purified via the Strep-tag II; see Example 1)) was injected at a defined concentration (between 0.25 and 6.8 μM) for 2 minutes, followed by buffer flow for 4 minutes. The chip surface was regenerated using 70 μl 0.35 M EDTA, pH 8.0 in flow buffer prior to the next measurement. Each time-dependent binding isotherm of the Fab fragment was corrected for the background signal that was detected in the flow channel without NI-Fr4 using BIAevaluation software (Version 3.0). Resonance unit values for the bound Fab fragment at equilibrium for each applied concentration were then deduced and fitted (Voss and Skerra, supra) by non-linear least squares regression using an equation of the type y=a*x/(b+x). […]

[2] = target: T1, recombinant Nogo-A fragment NI-Fr4; assay: SPR (Biacore X); NI-Fr4 on Ni/NTA chip, equilibrium fit
Method: as §1, §2

[3] = target: T2, recombinant Nogo-A fragment NI-Fr2 (rat, UniProt Q9JK11 233-941, labelled with digoxigenin (molar ratio 5:1) in the colony screening assay); assay: ELISA, wells coated with NI-Fr2, bound Fab detected with anti-human Ckappa antibody-alkaline phosphatase, delta A405/delta t
T2 construct: Truncated rat Nogo-A with C-terminal Strep-tag, made in the E. coli periplasm; also called MI-Fr2; wild-type NI-Fr2
T2 sequence: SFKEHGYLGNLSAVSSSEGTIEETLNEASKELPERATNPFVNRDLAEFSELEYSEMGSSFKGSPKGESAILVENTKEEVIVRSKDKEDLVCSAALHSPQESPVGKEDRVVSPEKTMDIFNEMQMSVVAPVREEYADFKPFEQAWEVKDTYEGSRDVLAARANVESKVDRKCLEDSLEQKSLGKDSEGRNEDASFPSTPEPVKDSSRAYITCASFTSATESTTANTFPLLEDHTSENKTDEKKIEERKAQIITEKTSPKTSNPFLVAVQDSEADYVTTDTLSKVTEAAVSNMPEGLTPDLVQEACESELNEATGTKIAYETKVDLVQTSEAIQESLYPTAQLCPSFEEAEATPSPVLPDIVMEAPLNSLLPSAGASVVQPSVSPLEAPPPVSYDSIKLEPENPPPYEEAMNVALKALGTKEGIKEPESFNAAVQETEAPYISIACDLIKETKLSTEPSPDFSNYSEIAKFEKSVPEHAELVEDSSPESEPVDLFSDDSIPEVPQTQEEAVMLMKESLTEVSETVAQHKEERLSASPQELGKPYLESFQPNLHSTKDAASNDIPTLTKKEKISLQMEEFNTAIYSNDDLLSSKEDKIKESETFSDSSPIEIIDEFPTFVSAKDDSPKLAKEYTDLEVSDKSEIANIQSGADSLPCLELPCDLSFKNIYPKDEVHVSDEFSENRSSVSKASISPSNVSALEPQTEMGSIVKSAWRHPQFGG
Method: Antigen-binding activity of the mutant Fab fragments was subsequently tested by ELISA using the recombinant NI-Fr2 for coating of the microtitre plate wells (FIG. 2).
ELISA was carried out in a 96 well microtitre plate (Becton Dickinson, Heidelberg, Germany) at ambient temperature with incubation steps of 1 h unless otherwise stated. Three washing steps with PBS/T were used after each incubation, and residual liquid was removed thoroughly. The wells were coated for 4 h with 50 μl of a solution of MI-Fr2 at concentrations between 180 and 200 μg/ml in PBS buffer and then blocked with 200 μl 3% (w/v) BSA, 0.5% (v/v) Tween 20 in PBS. After washing, 50 μl of the purified recombinant Fab fragment was applied at a dilution series in PBS/T. The wells were then incubated with 50 μl anti-human Cκ antibody conjugated with alkaline phosphatase (Sigma), diluted 1:1000 in PBS/T. Signals were finally developed in the presence of p-nitrophenyl phosphate (Voss and Skerra, (1997) Protein Eng., 10, 975-982). Enzymatic activity was measured at 25° C. as the change in absorbance at 405 nm per min with a SpectraMAX 250 instrument (Molecular Devices, Sunnyvale, Calif.). The data were corrected for background values determined in wells that were merely coated with BSA and fitted by non-linear least squares regression as described by Voss and Skerra, supra

[4] = target: T3, BSA (bovine, UniProt P02769 25-607); assay: ELISA; BSA as antigen
T3 construct: Control antigen
T3 sequence (P02769 25-607 limits assumed): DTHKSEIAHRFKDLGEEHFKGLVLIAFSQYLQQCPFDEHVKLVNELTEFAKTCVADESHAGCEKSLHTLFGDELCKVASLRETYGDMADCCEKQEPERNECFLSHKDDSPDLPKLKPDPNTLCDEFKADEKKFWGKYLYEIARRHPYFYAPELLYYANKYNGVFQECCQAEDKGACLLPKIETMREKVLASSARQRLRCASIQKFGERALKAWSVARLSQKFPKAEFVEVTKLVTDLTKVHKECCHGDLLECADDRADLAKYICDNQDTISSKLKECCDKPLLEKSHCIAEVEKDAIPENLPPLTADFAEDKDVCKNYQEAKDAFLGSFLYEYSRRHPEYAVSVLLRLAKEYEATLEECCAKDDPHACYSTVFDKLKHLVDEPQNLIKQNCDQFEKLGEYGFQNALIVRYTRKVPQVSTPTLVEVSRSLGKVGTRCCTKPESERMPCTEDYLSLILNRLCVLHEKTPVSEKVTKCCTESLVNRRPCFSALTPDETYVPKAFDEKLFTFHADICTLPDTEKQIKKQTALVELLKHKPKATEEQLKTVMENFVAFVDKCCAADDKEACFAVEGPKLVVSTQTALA

[5] = target: T2, recombinant Nogo-A fragment NI-Fr2; assay: ELISA; NI-Fr2 coated, purified Fab (pASK88, His6), anti-human Ckappa-AP detection

B1: recombinant wild-type IN-1 Fab fragment (Fab, V domains shown)
VH: EVKLHESGPGLVRPGTSVKISCKASGYTFTNYWLGWVKQRPGHGLEWIGDIYPGGGYTNYNEKFKGKATLTADTSSSTAYMQLSSLTSEDSAVYFCARFYYGSSYWYFDVWGQGTTVTVSS
VL: DIELTQSPAIMAASVGETVTITCGASENIYGALNWYQRKQGKSPQLLIYGATNLADGMSSRFSGSGSGRQYSLKISSLHPDDVATYYCQNVLSTPRTFGAGTKLEIK
notes: Formats: pASK106 (ABD on light chain) in the colony screen, pASK88 (His6 on heavy chain) in ELISA, staining and neurite assay, pASK107 (Strep-tag II) in SPR; also called IN-1 wt; IN-1 (wild-type) Fab fragment
Kd [1]: 7.8 µM

B2: II.1.8 Fab fragment (Fab, V domains shown)
VH: EVKLHESGPGLVRPGTSVKISCKASGYTFTNYWLGWVKQRPGHGLEWIGDIYPGGGYTNYNEKFKGKATLTADTSSSTAYMQLSSLTSEDSAVYFCARFYYGSSYWYFDVWGQGTTVTVSS
VL: DIELTQSPAIMAASVGETVTITCGASENIYGALNWYQRKQGKSPQLLIYGATNLADGMSSRFSGSGSGRQYSLKISSLHPDDVATYYCQNINRVPVTFGAGTKLEIK
notes: also called II.1.8 mutant; antibody fragment II.1.8
fold improvement of KD over the wild-type IN-1 Fab fragment [2]: 8 fold
Kd [1]: 1.04 µM

Other lines, results leading:

binding result [3]: binds
binding result [4]: no binding
B3: I.2.6 Fab fragment (IN-1 mutant) (Fab, V domains shown)
VH: EVKLHESGPGLVRPGTSVKISCKASGYTFTNYWLGWVKQRPGHGLEWIGDIYPGGGYTNYNEKFKGKATLTADTSSSTAYMQLSSLTSEDSAVYFCARFYYGSSYWYFDVWGQGTTVTVSS
VL: DIELTQSPAIMAASVGETVTITCGASENIYGALNWYQRKQGKSPQLLIYGATNLADGMSSRFSGSGSGRQYSLKISSLHPDDVATYYCQNVLRVPCTFGAGTKLEIK
notes: Chimeric Fab, human IgG1/kappa constant domains; also called mutant I.2.6; original I.2.6 Fab fragment

binding result [5]: binds
B4: I.1.4 Fab fragment (IN-1 mutant) (Fab, V domains shown)
VH: EVKLHESGPGLVRPGTSVKISCKASGYTFTNYWLGWVKQRPGHGLEWIGDIYPGGGYTNYNEKFKGKATLTADTSSSTAYMQLSSLTSEDSAVYFCARFYYGSSYWYFDVWGQGTTVTVSS
VL: DIELTQSPAIMAASVGETVTITCGASENIYGALNWYQRKQGKSPQLLIYGATNLADGMSSRFSGSGSGRQYSLKISSLHPDDVATYYCQNVLPVPWTFGAGTKLEIK
notes: Chimeric Fab, human IgG1/kappa constant domains
